Biological target: platelet membrane actin (human (endogenous in platelets)) (UniProt P60709)
Experiment: SEC

percent of surface GPIIb and III associated with the actin-rich void volume peak: > 85%
Substance: glycoprotein IIb, form in the Triton X-100-insoluble fraction of platelet plasma membranes (natural protein)
